Values belong to the binder of their own block, whether it stands above or below them.
Columns and labels:
murine DR5 = molecular target: T1, murine DR5 (mouse (Mus musculus), UniProt Q9QZM4 53-381); experiment: flow cytometry on transfected CHO cells
T1 construct: also called mouse DR5

[1] = molecular target: T2, cynomolgus monkey DR5 protein with deletion of amino acids 185-213 and death domain loss-of-function mutation … (cynomolgus monkey (Macaca fascicularis)); experiment: flow cytometry on cynomolgus DR5-transfected CHO cells; four experiments
T2 construct: also called Cyno DR5Mfdel-K420N
T2 chain: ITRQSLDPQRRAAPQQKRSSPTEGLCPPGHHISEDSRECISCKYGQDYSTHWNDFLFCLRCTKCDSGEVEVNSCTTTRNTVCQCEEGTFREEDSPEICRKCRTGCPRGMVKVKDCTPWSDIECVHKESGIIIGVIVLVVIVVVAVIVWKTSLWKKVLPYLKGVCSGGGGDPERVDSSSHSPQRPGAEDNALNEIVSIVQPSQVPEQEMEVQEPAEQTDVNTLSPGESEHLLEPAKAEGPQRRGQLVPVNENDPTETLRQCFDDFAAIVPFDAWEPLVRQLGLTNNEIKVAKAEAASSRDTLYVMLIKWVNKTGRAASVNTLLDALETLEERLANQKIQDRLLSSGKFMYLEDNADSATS

[2] = molecular target: T3, human DR5 (death receptor 5) on DR5-positive human colon cancer cells (human, UniProt O14763 56-440); experiment: flow cytometry on HCT 116 cells
T3 construct: Endogenous receptor of the cell lines; also called CD262; TRAILR2

T1 sequence (Q9QZM4 53-381 limits assumed): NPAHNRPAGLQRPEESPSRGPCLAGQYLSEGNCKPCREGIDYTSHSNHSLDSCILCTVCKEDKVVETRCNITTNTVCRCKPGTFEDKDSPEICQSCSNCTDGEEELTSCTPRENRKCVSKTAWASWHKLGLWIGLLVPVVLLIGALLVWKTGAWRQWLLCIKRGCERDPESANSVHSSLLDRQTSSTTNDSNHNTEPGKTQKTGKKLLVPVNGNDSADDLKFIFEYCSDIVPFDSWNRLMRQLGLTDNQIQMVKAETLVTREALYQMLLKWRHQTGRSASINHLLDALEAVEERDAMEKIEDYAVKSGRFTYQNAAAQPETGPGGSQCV

- binding result (murine DR5): no binding (tested: 10 µg/mL)
B1: IgG1-hDR5-05-F405L (antibody, name in EU numbering)
heavy: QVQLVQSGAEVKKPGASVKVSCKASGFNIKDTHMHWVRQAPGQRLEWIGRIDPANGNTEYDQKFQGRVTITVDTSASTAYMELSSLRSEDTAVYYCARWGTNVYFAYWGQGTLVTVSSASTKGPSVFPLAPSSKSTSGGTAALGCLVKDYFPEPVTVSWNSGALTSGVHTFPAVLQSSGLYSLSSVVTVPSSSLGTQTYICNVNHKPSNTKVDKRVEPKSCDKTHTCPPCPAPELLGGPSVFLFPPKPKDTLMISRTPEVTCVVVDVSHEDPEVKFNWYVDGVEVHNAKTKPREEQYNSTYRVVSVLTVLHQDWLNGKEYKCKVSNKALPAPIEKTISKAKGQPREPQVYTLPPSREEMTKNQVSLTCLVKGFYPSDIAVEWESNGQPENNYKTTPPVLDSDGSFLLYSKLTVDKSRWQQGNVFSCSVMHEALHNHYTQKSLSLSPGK
light: DIQLTQSPSSLSASVGDRVTITCSASSSVSYMYWYQQKPGKAPKPWIYRTSNLASGVPSRFSGSGSGTDFTLTISSLQPEDFATYYCQQYHSYPPTFGGGTKVEIKRTVAAPSVFIFPPSDEQLKSGTASVVCLLNNFYPREAKVQWKVDNALQSGNSQESVTEQDSKDSTYSLSSTLTLSKADYEKHKVYACEVTHQGLSSPVTKSFNRGEC
notes: Expressed as IgG1,kappa; also called humanized DR5-05

B2: IgG1-hDR5-05-E430G (antibody)
heavy: not shown
light: DIQLTQSPSSLSASVGDRVTITCSASSSVSYMYWYQQKPGKAPKPWIYRTSNLASGVPSRFSGSGSGTDFTLTISSLQPEDFATYYCQQYHSYPPTFGGGTKVEIKRTVAAPSVFIFPPSDEQLKSGTASVVCLLNNFYPREAKVQWKVDNALQSGNSQESVTEQDSKDSTYSLSSTLTLSKADYEKHKVYACEVTHQGLSSPVTKSFNRGEC
- EC50 [1]: 0.17 µg/mL

B3: IgG1-hDR5-05-N55D-F405L (antibody, V domains shown)
VH: QVQLVQSGAEVKKPGASVKVSCKASGFNIKDTHMHWVRQAPGQRLEWIGRIDPADGNTEYDQKFQGRVTITVDTSASTAYMELSSLRSEDTAVYYCARWGTNVYFAYWGQGTLVTVSS
VL: DIQLTQSPSSLSASVGDRVTITCSASSSVSYMYWYQQKPGKAPKPWIYRTSNLASGVPSRFSGSGSGTDFTLTISSLQPEDFATYYCQQYHSYPPTFGGGTKVEIKR
- binding result [2]: binds
